# Results from patent US20220119521A1 (Pfizer, published 2022).
# T1: chimeric cynomolgus/human MAdCAM (cynomolgus; human, UniProt Q13477 226-382, limits assumed)
# T1 sequence: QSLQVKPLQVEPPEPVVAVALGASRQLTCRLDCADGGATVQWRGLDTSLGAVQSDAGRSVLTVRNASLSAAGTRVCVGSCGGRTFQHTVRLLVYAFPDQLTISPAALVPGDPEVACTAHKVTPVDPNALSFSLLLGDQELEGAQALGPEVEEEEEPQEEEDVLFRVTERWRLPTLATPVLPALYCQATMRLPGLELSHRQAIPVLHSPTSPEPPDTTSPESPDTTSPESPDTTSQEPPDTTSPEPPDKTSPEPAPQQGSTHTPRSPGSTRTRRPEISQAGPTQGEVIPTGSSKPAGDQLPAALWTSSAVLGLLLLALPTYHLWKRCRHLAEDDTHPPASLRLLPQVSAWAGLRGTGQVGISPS
# Biological target: MAdCAM-IgG1 Fc fusion protein (human)
# Experiment: cell-based or functional assay
row,Binder,"Mean IC50, α4β7+ JY cell adhesion to coated MAdCAM IgG1 Fc fusion [µg/mL]"
1,"anti-MAdCAM monoclonal antibody 1.7.2 (antibody, human IgG2, kappa, V domains shown) VH: EVQLVESGGGLVKPGGSLRLSCVASGFTFTNAWMIWVRQAPGKGLEWVGRIKRKTDGGTTDYAAPVKGRFTISRDDSKNTLYLQMNSLKTEDTAVYYCTTGGVAEDYWGQGTLVTVSS VL: not shown",0.03
2,"anti-MAdCAM monoclonal antibody 1.8.2 (antibody, human IgG2, kappa, V domains shown) VH: EVQLVESGGGLVKPGGSLRLSCVVSGFTFTNAWMIWVRQAPGKGLEWVGRIKRKTDGGTTDYAAPVKGRFTISRDDSKNTLYLQMNSLKTEDTAVYYCTTGGVAEDYWGQGTLVTVSS VL: not shown",0.027

# Continued, values first:
row,"Mean IC50, α4β7+ JY cell adhesion to coated MAdCAM IgG1 Fc fusion [µg/mL]",Binder
1,0.021,"anti-MAdCAM monoclonal antibody 7.26.4 (antibody, human IgG2, kappa, V domains shown) VH: QVQLVQSGAEVKKPGASVKVSCEASGYTFTSYGIDWVRQAPGQGLEWMGWISVYSGNTNYAQKLQGRVTMSTDTSTSTAYMELRSLRSDDTAVYYCAREGSSSSGDYYYGMDVWGQGTTVTVSS VL: DIVMTQTPLSLSVTPGQPASISCKSNQSLLYSDGKTYLFWYLQKPGQPPQLLIYEVSNRFSGVPDRFSGSGSGTDFTLKISRVEAEDVGVYYCMQSIQLPWTFGQGTKVEIKR"
2,0.025,"anti-MAdCAM monoclonal antibody 7.20.5 (antibody, human IgG2, kappa, V domains shown) VH: QVQLQESGPGLVKPSETLSLTCTVSGSSISSYHWNWIRQPAGKGLEWIGRIYTSGSTNYNPSLKSRVTMSLDTSKNQFSLKLSSVTAADTAVYYCAREGVRYYYASGSYYYGLDVWGQGTTVTVSS VL: not shown"

# Biological target: T1, chimeric cynomolgus/human MAdCAM
# Experiment: cell-based or functional assay
row,Binder,"Functional IC50 (µg/mL), cynomolgus/human MAdCAM-CHO/JY adhesion assay [µg/mL]"
1,"anti-MAdCAM monoclonal antibody 6.34.2 (antibody, human IgG4, kappa, V domains shown) VH: QVQLVESGGGVVQPGRSLRLSCAASGFTFSSYGMHWVRQAPGKGLEWVAVISNDGNNKYYADSVKGRFTISRDNSKNTLYLQMNSLSAEDTAVYYCARDSTAITYYYYGMDVWGQGTTVTVSS VL: DIQMTQSPSSLSASVGDRVTITCRASQNISSYLNWFQQKPGKAPKLLIYAASGLKRGVPSRFSGSGSGTDFTLTIRTLQPDDFATYSCHQSYSLPFTFGPGTKVDIKR",0.47
2,"anti-MAdCAM monoclonal antibody 6.14.2 (antibody, human IgG4, kappa, V domains shown) VH: EVQLLESGGGLVQPGGSLRLSCAASGLTFNNSAMTWVRQAPGKGLEWVSTTSGSGGTTYYADSVKGRFTISRDSPKNTLYLQMNSLRAEDTAVYYCAARGYSYGTTPYEYWGQGTLVTVSS VL: DIQMTQSPSSLSASVGDRVTITCRASRSISSYLNWYQQKPGKAPKVLIFFVSSLQSGVPSRFSGSGSGTDFTLTISSLQPEDFATYYCQQNYIPPITFGQGTRLEIRR",0.53
3,"anti-MAdCAM monoclonal antibody 6.67.1 (antibody, human IgG4, kappa, V domains shown) VH: QVQLQESGPGLVKPSETLSLTCTVSGDSISSNYWSWIRQPAGKGLEWIGRIYTSGGTNSNPSLRGRVTILADTSKNQFSLKLSSVTAADTAVYYCARDRITIIRGLIPSFFDYWGQGTLVTVSS VL: not shown",0.75

# Results, then the binder that gave them:
row,"Functional IC50 (µg/mL), cynomolgus/human MAdCAM-CHO/JY adhesion assay [µg/mL]",Binder
1,0.96,"anti-MAdCAM monoclonal antibody 7.26.4 (antibody, human IgG2, kappa, V domains shown) VH: QVQLVQSGAEVKKPGASVKVSCEASGYTFTSYGIDWVRQAPGQGLEWMGWISVYSGNTNYAQKLQGRVTMSTDTSTSTAYMELRSLRSDDTAVYYCAREGSSSSGDYYYGMDVWGQGTTVTVSS VL: DIVMTQTPLSLSVTPGQPASISCKSNQSLLYSDGKTYLFWYLQKPGQPPQLLIYEVSNRFSGVPDRFSGSGSGTDFTLKISRVEAEDVGVYYCMQSIQLPWTFGQGTKVEIKR"
2,0.64,"anti-MAdCAM monoclonal antibody 6.77.1 (antibody, human IgG4, kappa, V domains shown) VH: EVQLVESGGGLVKPGGSLRLSCAASGFTFSSYSMNWVRQAPGKGLEWVSSISSSSSYIYYADSVKGRFTISRDNAKNSLYLQMNSLRAEDTAVYYCARDGYSSGWSYYYYYGMDVWGQGTTVTVSS VL: DIVMTQTPLSLSVTPGQPASISCNSSQSLLLSDGKTYLNWYLQKPGQPPQLLIYEVSNRFSGVPDRFSGSGSGTDFTLKISRVEAEDVGVYSCMQSIQLMCSFGQGTKLEIKR"
3,0.62,"anti-MAdCAM monoclonal antibody 7.20.5 (antibody, human IgG2, kappa, V domains shown) VH: QVQLQESGPGLVKPSETLSLTCTVSGSSISSYHWNWIRQPAGKGLEWIGRIYTSGSTNYNPSLKSRVTMSLDTSKNQFSLKLSSVTAADTAVYYCAREGVRYYYASGSYYYGLDVWGQGTTVTVSS VL: not shown"
4,0.83,"anti-MAdCAM monoclonal antibody 9.8.2 (antibody, human IgG4, kappa, V domains shown) VH: QVQLVESGGGVVQPGRSLRLSCAASGFTFSSYGMHWVRQAPGKGLEWVAVIWYDGSNEYYADSVKGRFTISRDNSKNTLYLQMNSLRAEDTAVYYCARGAYHFAYWGQGTLVTVSS VL: DIQMTQSPSSLSASVGDRVTITCQASQDISNYLNWYQQKPGKAPKLLIYDASNLETGVPSRFSGSGSGTDFTFTISSLQPEDIATYSCQHSDNLSITFGQGTRLEIKR"
5,0.83,"anti-MAdCAM monoclonal antibody 6.22.2 (antibody, human IgG4, kappa, V domains shown) VH: QVQLVESGGGVVQPGRSLRLSCAASGHTFSSDGMHWVRQAPGKGLEWVAIIWYDGSNKYYADSVKGRFTISRDNSKNTLYLQMNSLRAEDTAVYYCARDPGYYYGMDVWGQGTTVTVSS VL: EIVLTQSPDFQSVTPKEKVTITCRASQRIGSSLHWYQQKPDQSPKLLIKYASQSFSGVPSRFSGSGSGTNFTLTINGLEAEDAATYYCHQSGRLPLTFGGGTKVEIKR"
